This passage reports stoichiometry N results from PMC2885149.

This assay deals with adeno-associated virus serotype 3B (AAV-3B) capsid protein subunit (adeno-associated virus serotype 3B). Kind of assay: crystal structure.

Regarding “adeno-associated virus serotype 3B (AAV-3B) capsid protein subunit (natural protein)”, the stoichiometry N (commonly the number of molecules, sites or subunits per partner or assembly) worked out at 60.
